Results reported in publication PMC12598741 (Antibody Therapeutics, 2025).

How the values were obtained:
[1] = target: light-chain single-domain antibody L6 (mCD16-specific VHHL); assay: BLI; conditions: both partners purified
[2] = target: T1, human tumor necrosis factor alpha (hTNF-α)-His (human, UniProt P01375); assay: BLI; conditions: both partners purified
T1 construct: also called hTNF-a
T1 sequence (P01375 whole entry): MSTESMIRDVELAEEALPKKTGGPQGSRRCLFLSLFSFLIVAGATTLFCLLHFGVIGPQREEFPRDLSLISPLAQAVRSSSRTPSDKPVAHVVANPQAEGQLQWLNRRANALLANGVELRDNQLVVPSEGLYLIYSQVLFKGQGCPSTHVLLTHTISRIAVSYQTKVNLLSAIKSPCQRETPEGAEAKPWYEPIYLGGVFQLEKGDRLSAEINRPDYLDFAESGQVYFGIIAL

Kd [1]	Binder	binding result [2]
54.3 ± 1.41 nM	mouse CD16 (mCD16), his-tagged (receptor, UniProt P08508 31-215, looked up) ALPKAVVKLDPPWIQVLKEDMVTLMCEGTHNPGNSSTQWFHNGRSIRSQVQASYTFKATVNDSGEYRCQMEQTRLSDPVDLGVISDWLLLQTPQRVFLEGETITLRCHSWRNKLLNRISFFHNEKSVRYHHYKSNFSIPKANHSHSGDYYCKGSLGSTQHQSKPVTITVQDPATTSSISLVWYHT	
	hIgG4 bsAb by modular replacement: golimumab (Gmab) heavy chain with L6 light chain (bispecific antibody, V domains shown) VH: QVQLVESGGGVVQPGRSLRLSCAASGFIFSSYAMHWVRQAPGNGLEWVAFMSYDGSNKKYADSVKGRFTISRDNSKNTLYLQMNSLRAEDTAVYYCARDRGIAAGGNYYYYGMDVWGQGTTVTVSS VL: EIVLTQSPGTLSLSPGERATLSCRASGSTFSSYTLAWYQQKPGQAPRLLIYIYSDGGRTSRATGIPDRFSGSGSGTDLTLTISRLEPEDFAVYYCNAESPFYDYDYWGKGTKVEIK	binds
